In test [1] the target is FcγRs on human neutrophils and peripheral blood monocytes.
For test [2], the target named is FPR on human neutrophils and monocytes (human, UniProt P21462). Briefly: cell-based or functional assay.

B1: FLIPr-like (other)
chain: FFSYEWKGLEIAKNLADQAKKDDERADKLIKEADEKNEHYKGKTVEDLYVIAKKMGKGNTIAVVKIKDGGKNGYYTFDITRPLEEHRKNIPVVKNGEIDSITWY
modifications: FITC label in the flow cytometric binding assays (FLIPr-like-FITC); unlabelled elsewhere
The molecule B1 had a minimal effective concentration in phagocytosis by human neutrophils in test [1] of 0.19 µg/mL. In test [2], the “FPR blocking activity (fMLF-induced activation of neutrophils)” value was roughly 100 fold.

The values are drawn from patent US20090264359A1, “FPLR-1 INHIBITORS FOR USE IN DISEASES INVOLVING AMYLOID-INDUCED INFLAMMATORY EVENTS (FLIPR AND FLIPR-LIKE) AND IMMUNECOMPLEX-[…] DISEASES” (published 2009).
